Each block holds one substance with its values, some of them ahead of it.
Tests used:
Assay in all cases: FRET or BRET
[1] = biological target: cpVenus-tagged Gβγ of the G15 BRET sensor (UniProt P62873)
[2] = biological target: Gβ3 with cpVenus-Gγ9 (Gβγ of the G13 BRET sensor) (UniProt P16520)
[3] = biological target: cpVenus-tagged Gβγ of the Gs BRET sensor (UniProt P62873)

UniProt P16520, sequence (P16520 whole entry, chain 1 of 2): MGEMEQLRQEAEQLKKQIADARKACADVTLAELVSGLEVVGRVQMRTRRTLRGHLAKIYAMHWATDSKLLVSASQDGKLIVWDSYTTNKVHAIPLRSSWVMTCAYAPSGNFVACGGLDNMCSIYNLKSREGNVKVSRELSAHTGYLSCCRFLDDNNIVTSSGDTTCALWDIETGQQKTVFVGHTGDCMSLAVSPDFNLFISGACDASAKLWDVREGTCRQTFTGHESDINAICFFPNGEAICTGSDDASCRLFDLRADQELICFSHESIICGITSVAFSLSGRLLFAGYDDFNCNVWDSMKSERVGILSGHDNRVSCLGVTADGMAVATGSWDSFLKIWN
UniProt P16520, sequence (O14610 whole entry, chain 2 of 2, further chain): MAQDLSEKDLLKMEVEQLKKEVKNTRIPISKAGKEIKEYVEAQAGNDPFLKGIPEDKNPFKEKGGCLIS

amplitude of the BRET response (ΔBRET) on agonist activation of TBXA2R [1]: -10%
Substance: Nluc-tagged Gα15 (G15 BRET sensor) (from UniProt P30679 1-374) (natural protein)

amplitude of the BRET response (ΔBRET) on agonist activation of TBXA2R [2]: -35%
Substance: Gα13-Nluc (G13 BRET sensor) (from UniProt Q14344 1-377) (natural protein)

amplitude of the BRET response (ΔBRET) on agonist activation of β2AR [3]: -10%
Substance: Nluc-tagged Gαs (Gs BRET sensor) (from UniProt P63092 1-394) (natural protein)

Reference: article doi:10.1101/2021.02.05.429900
